In publication PMC12507909, “The reticulocyte restriction: invasion ligand RBP1a of Plasmodium vivax targets human TfR1, prohibitin-2, and basigin” (Frontiers in Cellular and Infection Microbiology, 2025):

Biological target: T1, transferrin receptor protein 1 (TfR1), recombinant extracellular domain Cys89-Phe760 (human, UniProt P02786 89-760)
T1 construct: Human transferrin receptor protein 1 (TfR1/CD71), extracellular domain, Cys89-Phe760; also called CD71; the 89–760 domain of TfR1; source: bought: SinoBiological
Assay: ELISA; Maxisorp plates coated with 5 μg/mL of each receptor candidate; serial dilutions of PvRBP1a_(158-650)LTID and LTID (48,000 pM to 187.5 pM and 4,000 pM to 1.28 pM) in blocking solution, 16 hours at 4°C; detected with a TurboID-specific antibody; one-site binding saturation model; triplicates
Conditions: both partners purified

T1 sequence (P02786 89-760): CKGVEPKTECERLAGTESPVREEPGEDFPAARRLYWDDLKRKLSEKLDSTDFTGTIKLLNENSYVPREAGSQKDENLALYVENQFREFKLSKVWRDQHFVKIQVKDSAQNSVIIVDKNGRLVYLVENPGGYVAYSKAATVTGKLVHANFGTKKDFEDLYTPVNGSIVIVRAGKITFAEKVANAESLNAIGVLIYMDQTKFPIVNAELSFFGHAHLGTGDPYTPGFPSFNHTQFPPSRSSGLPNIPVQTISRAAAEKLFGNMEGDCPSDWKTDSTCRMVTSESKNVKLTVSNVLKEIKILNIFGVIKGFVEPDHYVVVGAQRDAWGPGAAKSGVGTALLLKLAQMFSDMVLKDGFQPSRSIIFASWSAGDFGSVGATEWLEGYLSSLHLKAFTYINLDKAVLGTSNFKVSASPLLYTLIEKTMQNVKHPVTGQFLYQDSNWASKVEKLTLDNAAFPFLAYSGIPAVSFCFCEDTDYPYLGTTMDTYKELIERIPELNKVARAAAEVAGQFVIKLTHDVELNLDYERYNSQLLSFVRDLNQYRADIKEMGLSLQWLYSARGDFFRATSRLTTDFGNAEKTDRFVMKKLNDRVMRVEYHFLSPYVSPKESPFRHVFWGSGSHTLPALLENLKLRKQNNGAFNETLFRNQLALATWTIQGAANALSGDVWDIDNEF

B1: PvRBP1a_(158-650)LTID fusion protein (domain or fragment)
chain: YNSIVDMSEKLKENDKYNLVFDMEIDFVDLQFFNLILELIPKDSQYHTYYEETLKQQVTEYTNSLKTLMDSCISEKDQMIILEYEINYAKRKSIETETLGDKETKLSAVSQAYAKHLESYKGVLKPKLNDIKNNAFSVLKDSYCKDNCGEYVQKYNTMRKNFISSSDQYKMEAYMYIPKSINDYTVLDKILSESNELGIDIQETVNSLKLLGEEISEVSHLYVINSTLIDDAAKKLESINEEDESAEIDLQKFEDNSKALANNYCIFQYIKTLNEPIKKAYESKVIKSNELLSTIIDTLGKSATALQESTFNQEECNKIKTEAEKVKDDAEDIYEKNEQIYYEIPESEDETIADKINDLQYLIDQMNEYKDEIVNNSEFISNRYKNIYENLKETYETELNDIGQLENDTSKVNFYLMQIRKINTEKTKIDESLQTVEKFYKGILDLKEKIYELKIEFEKSVTEINRLQDGESARDLHEEQIKEILDKMAKKVH
notes: Synthetic gene optimised for E. coli, in pET-28a(+) between NcoI and XhoI; About 94 kDa; Details of expression and purification are in the Supplementary Data; also called PvRBP1a (158–650)-TurboID; PvRBP1a_(158-650)LITD
Kd: 1.15 nM
